Data as given in PMC12432404.

Molecular target: α‐synuclein (UniProt P37840)

Chain of HspA8 (P11142 whole entry): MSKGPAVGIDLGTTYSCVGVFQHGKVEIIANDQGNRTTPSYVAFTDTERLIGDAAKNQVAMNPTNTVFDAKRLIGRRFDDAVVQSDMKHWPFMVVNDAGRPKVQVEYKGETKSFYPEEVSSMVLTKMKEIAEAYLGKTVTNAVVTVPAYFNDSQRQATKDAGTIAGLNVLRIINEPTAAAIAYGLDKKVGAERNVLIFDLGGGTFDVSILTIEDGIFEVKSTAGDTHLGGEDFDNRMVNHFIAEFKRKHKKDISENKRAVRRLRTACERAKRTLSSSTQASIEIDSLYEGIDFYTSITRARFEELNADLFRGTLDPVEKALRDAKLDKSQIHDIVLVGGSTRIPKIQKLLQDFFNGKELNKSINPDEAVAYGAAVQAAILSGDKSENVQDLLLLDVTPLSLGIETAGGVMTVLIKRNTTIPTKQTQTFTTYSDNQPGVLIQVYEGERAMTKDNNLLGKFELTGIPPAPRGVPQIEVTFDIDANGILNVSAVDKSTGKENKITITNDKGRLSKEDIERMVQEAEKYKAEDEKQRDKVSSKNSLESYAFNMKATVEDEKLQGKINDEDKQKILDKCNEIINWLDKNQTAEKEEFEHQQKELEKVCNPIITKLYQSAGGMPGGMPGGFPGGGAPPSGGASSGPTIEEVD
Chain of DNAJB1 (P25685 whole entry): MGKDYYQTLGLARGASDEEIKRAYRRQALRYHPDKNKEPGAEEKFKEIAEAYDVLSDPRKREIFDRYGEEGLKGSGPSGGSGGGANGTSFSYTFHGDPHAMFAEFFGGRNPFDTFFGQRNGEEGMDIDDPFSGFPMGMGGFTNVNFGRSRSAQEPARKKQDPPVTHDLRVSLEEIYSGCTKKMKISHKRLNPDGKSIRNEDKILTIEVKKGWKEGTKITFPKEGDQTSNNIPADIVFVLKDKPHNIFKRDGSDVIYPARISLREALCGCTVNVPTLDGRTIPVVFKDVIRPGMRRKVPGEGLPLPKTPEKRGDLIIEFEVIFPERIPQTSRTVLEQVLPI

Row | Substance | Thioflavin‐T fluorescence: elongation of α‐synuclein seeds (2 μM) by monomeric α‐synuclein (0–20 μM) with and without the Hsp70 chaperones (2 μM HspA8, 1 μM DNAJB1, 0.2 μM Hsp110), 30°C [fold]
1 | HspA8 (from UniProt P11142 1-646) (natural protein) | 3
2 | DNAJB1 (from UniProt P25685 1-340) (natural protein) | 3
